The target of assay [1] is T1, Aβ42 (Homo sapiens, UniProt P05067).
T1 construct: purchased Abcam ab120301
Description: Spiking and recovery test of Aβ42. The conditions noted are these: PBS, 100 μM peptide assay, triplicate. The procedure: PBS and human serum were used as solutions for the spiking test. Each of the Aβ42 and Aβ40 stock solutions was diluted using PBS, and the mixture was diluted using human serum. The diluted samples were added to antibody-coated plates and incubated for 2 h. The binding conditions used for the antibody coating and the peptide, streptavidin, and TMB treatment steps are described above. To calculate the recovery ratio, we divided the signals of the mixtures by the signals of Aβ42.

In assay [2] the target is T1, Aβ42. Description: Binding of synthetic biotinylated peptide to Aβ42 captured on antibody-coated plate (enzyme-linked peptide assay, OD450). The conditions noted are these: biotin-conjugated peptide serially diluted, 1 h, PBST, Aβ42 captured by anti-Aβ42 antibody (protein G plate), streptavidin-HRP/TMB, Hill-slope fitting, triplicate, read-out: dissociation constant (KD). The procedure:
ABPP was conjugated with biotin as a signal reporter, with a purity greater than 95%, as assessed using high-performance liquid chromatography. The binding affinities of peptides were estimated for each Aβ42- and antibody-coated plate. The coating methods followed the protocol described above, except for the use of PBST instead of TBST. After coating the plate with Aβ42, serially diluted peptide was added to the plate for 1 h. After peptide incubation, all wells were washed four times with PBST. Next, the wells were incubated with 100 µL of streptavidin-HRP (1:4000 in PBST) for 1 h. After incubation, the solution in the wells was washed four times with PBST. TMB solution was added to each well for 15 min. Next, 100 µL of 1 M H2SO4 was added to the wells to stop the reaction, and the absorbance was measured at 450 nm (OD450) using a microplate reader. To determine the detection range, serially diluted Aβ42 was added to the antibody-coated plates. After washing, the plate was incubated for 1 h with 100 µL of 100 µM peptide. Streptavidin and TMB treatment steps were performed as described above. Based on the measurements, the limit of detection (LOD) for the diagnostic system was calculated according to the formula from the IUPAC: LOD = 3 × SD/slope. To verify the specificity of our diagnostic system, other amyloid proteins were added to the antibody-coated plates. […]

As usually defined, the Kd is the free concentration of one partner at which half of the binding sites on the other are occupied at equilibrium, for simple one-to-one binding.

Ends that are not written are not given here.

T1 sequence (P05067 672-713 limits assumed): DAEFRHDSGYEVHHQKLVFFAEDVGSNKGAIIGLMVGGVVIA

“Aβ42: Aβ42 (ab120301) purchased from Abcam; analyte spiked in recovery test”: the “Average Recovery” value with Aβ42 [1] (Aβ40 + Aβ42 = 10 + 40 ng/mL, SD 12.46%, %RSD 12.84) worked out at 97.02%; in the assay with Aβ42 [1] (Aβ40 + Aβ42 = 20 + 40 ng/mL, SD 5.81%, %RSD 6.053), 96.04%; with Aβ42 [1] (Aβ40 + Aβ42 = 40 + 40 ng/mL, SD 10.51%, %RSD 10.15) it was 104.5%.
For the substance SEPQNIWQYLRN [ABPP], the Kd at Aβ42 [2] is 17.5 ± 2.98 µM.

Values taken from PMC8699310, “Development of a Low-Molecular-Weight Aβ42 Detection System Using a Enzyme-Linked Peptide Assay” (Biomolecules, 2021).
